Results as given in patent publication US20240115704A1, “TREATMENT OF CANCER WITH NK CELLS AND A CD38-TARGETED ANTIBODY” (Artiva Biotherapeutics, Inc., priority 2021, published 2024).

Molecular target: CD38 (human) (UniProt P28907)
Experiment: cell-based or functional assay

ADCC (percent specific lysis) of MM.1R multiple myeloma cells by AB-101, 0.31:1 E:T, 2 µg/mL daratumumab, 4 h: 4.88% | ADCC (percent specific lysis) of MM.1R multiple myeloma cells by AB-101, 10:1 E:T, 2 µg/mL daratumumab, 4 h: 42.4% | ADCC (percent specific lysis) of MM.1S multiple myeloma cells by AB-101, 0.31:1 E:T, 2 µg/mL daratumumab, 4 h: 2.34% | ADCC (percent specific lysis) of MM.1S multiple myeloma cells by AB-101, 10:1 E:T, 2 µg/mL daratumumab, 4 h: 19.8% | ADCC (percent specific lysis) of NCI-H929 multiple myeloma cells by AB-101, 0.31:1 E:T, 2 µg/mL daratumumab, 4 h: 3.38% | ADCC (percent specific lysis) of NCI-H929 multiple myeloma cells by AB-101, 10:1 E:T, 2 µg/mL daratumumab, 4 h: 46.4% | ADCC (percent specific lysis) of RPMI 8226 multiple myeloma cells by AB-101, 0.31:1 E:T, 2 µg/mL daratumumab, 4 h: 8.75% | ADCC (percent specific lysis) of RPMI 8226 multiple myeloma cells by AB-101, 10:1 E:T, 2 µg/mL daratumumab, 4 h: 58.2% | daratumumab-mediated ADCC (percent specific lysis) of Daudi cells by AB-101, 10:1 E:T, 2 µg/mL daratumumab, 4 h: 79.5%
Substance: daratumumab (antibody)
complement-dependent cytotoxicity of Daudi cells with human complement serum: daratumumab concentration at which lysis was saturated: < 0.41 µg/mL
